What was measured:
Glu11 = Glu11 (UniProt position 354, IAGFIEGGWTG); assay: NMR; conditions: DPC micelle-bound helical hairpin
Asp19 = Asp19 (UniProt position 362, WTGMIDGWYGY); assay: NMR; conditions: DPC micelle-bound helical hairpin

In the case of “Hemagglutinin HA2 fusion peptide HAfp23 (Influenza A virus (serotype H1; strain not stated))”, the pKa (Glu11) is reported as 5.31±0.01 and the pKa (Asp19) is reported as 4.35±0.02.
